Patent US20260232769A1 (WUXI BIOLOGICS IRELAND, published 2026)

Legend:
Test in all cases: cell-based or functional assay
[1] = molecular target: T1, IL-2Rα/β/γc complex (high affinity receptor) on human activated CD8+ T cells (human, UniProt P01589 22-272; P14784 27-551; P31785 23-369)
T1 sequence (looked up) 1: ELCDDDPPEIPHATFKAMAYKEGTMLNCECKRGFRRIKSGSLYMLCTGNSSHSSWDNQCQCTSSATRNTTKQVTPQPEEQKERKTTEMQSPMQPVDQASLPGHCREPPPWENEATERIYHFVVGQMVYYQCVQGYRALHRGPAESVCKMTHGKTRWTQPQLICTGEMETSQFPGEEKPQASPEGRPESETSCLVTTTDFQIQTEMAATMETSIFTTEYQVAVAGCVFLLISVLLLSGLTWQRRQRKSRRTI
T1 sequence (looked up) 2: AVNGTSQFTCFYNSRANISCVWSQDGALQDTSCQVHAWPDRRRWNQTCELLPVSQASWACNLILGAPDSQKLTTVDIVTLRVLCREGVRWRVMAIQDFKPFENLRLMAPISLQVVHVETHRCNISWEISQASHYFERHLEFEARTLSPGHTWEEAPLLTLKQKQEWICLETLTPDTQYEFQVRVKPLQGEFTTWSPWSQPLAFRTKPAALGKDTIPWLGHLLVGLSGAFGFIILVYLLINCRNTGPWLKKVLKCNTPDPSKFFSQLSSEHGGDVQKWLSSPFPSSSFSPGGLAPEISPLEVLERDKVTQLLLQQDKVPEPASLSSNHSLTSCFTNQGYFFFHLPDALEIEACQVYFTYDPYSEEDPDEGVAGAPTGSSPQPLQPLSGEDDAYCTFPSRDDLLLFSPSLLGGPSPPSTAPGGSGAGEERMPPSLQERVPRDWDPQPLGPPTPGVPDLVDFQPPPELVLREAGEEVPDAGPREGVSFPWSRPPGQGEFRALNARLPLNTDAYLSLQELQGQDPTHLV
T1 sequence (looked up) 3: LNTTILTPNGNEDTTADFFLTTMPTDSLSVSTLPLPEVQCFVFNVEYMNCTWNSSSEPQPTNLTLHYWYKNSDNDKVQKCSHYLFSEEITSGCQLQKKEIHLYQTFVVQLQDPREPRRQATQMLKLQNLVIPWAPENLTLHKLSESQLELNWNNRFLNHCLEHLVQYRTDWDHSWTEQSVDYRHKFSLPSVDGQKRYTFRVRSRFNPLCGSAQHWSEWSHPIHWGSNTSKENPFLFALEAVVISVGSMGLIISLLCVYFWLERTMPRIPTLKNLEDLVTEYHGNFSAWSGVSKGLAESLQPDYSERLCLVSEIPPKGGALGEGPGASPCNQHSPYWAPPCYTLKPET

[2] = molecular target: T2, IL-2Rβ/γc complex (intermediate affinity receptor) on primary human CD8+ T cells (human, UniProt P14784 27-551; P31785 23-369)
T2 sequence (looked up) 1: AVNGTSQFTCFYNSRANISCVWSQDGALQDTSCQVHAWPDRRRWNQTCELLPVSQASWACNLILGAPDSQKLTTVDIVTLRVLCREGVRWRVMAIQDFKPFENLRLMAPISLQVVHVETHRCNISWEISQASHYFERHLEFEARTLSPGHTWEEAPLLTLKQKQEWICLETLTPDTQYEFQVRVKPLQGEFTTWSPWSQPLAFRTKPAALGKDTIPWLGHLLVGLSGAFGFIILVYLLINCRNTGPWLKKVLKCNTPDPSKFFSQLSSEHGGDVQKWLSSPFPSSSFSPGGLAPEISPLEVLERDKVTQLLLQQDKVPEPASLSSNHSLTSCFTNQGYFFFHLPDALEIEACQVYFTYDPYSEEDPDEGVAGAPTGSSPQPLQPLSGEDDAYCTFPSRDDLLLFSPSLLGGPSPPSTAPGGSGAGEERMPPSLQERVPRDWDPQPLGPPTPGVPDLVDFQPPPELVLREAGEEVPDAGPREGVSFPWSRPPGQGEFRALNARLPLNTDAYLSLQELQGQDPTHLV
T2 sequence (looked up) 2: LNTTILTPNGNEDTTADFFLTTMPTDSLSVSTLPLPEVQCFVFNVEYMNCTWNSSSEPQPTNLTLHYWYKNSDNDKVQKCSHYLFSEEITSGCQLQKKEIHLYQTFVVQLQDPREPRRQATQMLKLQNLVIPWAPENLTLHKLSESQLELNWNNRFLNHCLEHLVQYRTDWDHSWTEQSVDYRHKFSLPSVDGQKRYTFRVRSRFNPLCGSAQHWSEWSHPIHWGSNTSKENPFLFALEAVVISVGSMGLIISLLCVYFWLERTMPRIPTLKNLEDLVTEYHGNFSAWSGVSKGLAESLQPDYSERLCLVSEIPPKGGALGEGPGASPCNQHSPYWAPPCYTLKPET

[3] = molecular target: T1, IL-2Rα/β/γc complex (high affinity …); remark: listed apart in the source
[4] = molecular target: T3, IL-2Rα (CD25) on human activated CD8+ T cells (human, UniProt P01589 22-272)
T3 sequence (looked up): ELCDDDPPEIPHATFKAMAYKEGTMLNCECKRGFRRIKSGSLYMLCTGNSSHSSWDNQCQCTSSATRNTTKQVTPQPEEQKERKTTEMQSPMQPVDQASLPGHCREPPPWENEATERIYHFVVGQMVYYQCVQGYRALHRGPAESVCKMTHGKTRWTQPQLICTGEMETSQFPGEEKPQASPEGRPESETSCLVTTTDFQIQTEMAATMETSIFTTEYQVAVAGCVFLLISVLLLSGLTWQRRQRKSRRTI

[5] = molecular target: PD-1 (on CHO-PD1 engineered cell line; on activated CD8+ T cells) (UniProt Q15116 25-288, limits assumed)

B1: W3XX115-T3U0.E44-1.uIgG4V322 (Fc fusion)
chain: APTSSSTKKTQLQLEHLLLDLQMILNGINNYKNPKLTRMLTVKFAMPKKATELKHLQCLEEELKPLEEVLNGAQSKNFHLRPRDLISNINVIVLELKGSETTFMCEYADETATIVEFLNRWITFCQSIISTLTESKYGPPCPPCPAPEAAGGPSVFLFPPKPKDTLMISRTPEVTCVVVDVSQEDPEVQFNWYVDGVEVHNAKTKPREEQFNSTYRVVSVLTVLHQDWLNGKEYKCKVSNKGLPSSIEKTISKAKGQPREPQVYTLPPCQEEMTKNQVSLWCLVKGFYPSDIAVEWESNGQPENNYKTTPPVLDSDGSFFLYSRLTVDKSRWQEGNVFSCSVMHEALHNHYTQKSLSLSLG
heavy: EIQLQQSGPELVKPGASVKVSCKASGYSFTDYNMYWVKQSHGESLEWIGYIDPYNGGTRYNQKFKGKATLTVDKSSSTAFMHLNSLTSEDSAVYYCARNGHWDGAWFAYWGQGTLVTVSAASTKGPSVFPLAPCSRSTSESTAALGCLVKDYFPEPVTVSWNSGALTSGVHTFPAVLQSSGLYSLSSVVTVPSSSLGTKTYTCNVDHKPSNTKVDKRVESKYGPPCPPCPAPEAAGGPSVFLFPPKPKDTLMISRTPEVTCVVVDVSQEDPEVQFNWYVDGVEVHNAKTKPREEQFNSTYRVVSVLTVLHQDWLNGKEYKCKVSNKGLPSSIEKTISKAKGQPREPQVCTLPPSQEEMTKNQVSLSCAVKGFYPSDIAVEWESNGQPENNYKTTPPVLDSDGSFFLVSRLTVDKSRWQEGNVFSCSVMHEALHNHYTQKSLSLSLG
light: DIQMNQSPSSLSASLGDTITITCHASQNINVWLSWYQQKPGNIPKLLIYKASNLHTGVPSRFSGSRSGTGFTLTISSLQPEDIATYYCHQGQSYPFTFGSGTKLEIKRTVAAPSVFIFPPSDEQLKSGTASVVCLLNNFYPREAKVQWKVDNALQSGNSQESVTEQDSKDSTYSLSSTLTLSKADYEKHKVYACEVTHQGLSSPVTKSFNRGEC
Potency reduction, pSTAT5, human activated CD8+ T [1]: 12.4 fold

B2: W3XX115-T2U3.E44-6.uIgG4V322 (Fc fusion)
chain: APTSSSTKKTQLQLEHLLLDLQMILNGINNYKNPKLTRMLTFKFYMPKKATELKHLQCLEEELKPLEEVLNLAQSKNFHLRPRDLISNINVIVLELKGSETTFMCEYADETATIVEFLNRWITFCQSIIESKYGPPCPPCPAPEAAGGPSVFLFPPKPKDTLMISRTPEVTCVVVDVSQEDPEVQFNWYVDGVEVHNAKTKPREEQFNSTYRVVSVLTVLHQDWLNGKEYKCKVSNKGLPSSIEKTISKAKGQPREPQVYTLPPCQEEMTKNQVSLWCLVKGFYPSDIAVEWESNGQPENNYKTTPPVLDSDGSFFLYSRLTVDKSRWQEGNVFSCSVMHEALHNHYTQKSLSLSLGK
heavy: QVQLVQSGAEVKKPGSSVKVSCKASGFTFTTYYISWVRQAPGQGLEYLGYINMGSGGTNYNEKFKGRVTITADKSTSTAYMELSSLRSEDTAVYYCAIIGYFDYWGQGTMVTVSSASTKGPSVFPLAPCSRSTSESTAALGCLVKDYFPEPVTVSWNSGALTSGVHTFPAVLQSSGLYSLSSVVTVPSSSLGTKTYTCNVDHKPSNTKVDKRVESKYGPPCPPCPAPEAAGGPSVFLFPPKPKDTLMISRTPEVTCVVVDVSQEDPEVQFNWYVDGVEVHNAKTKPREEQFNSTYRVVSVLTVLHQDWLNGKEYKCKVSNKGLPSSIEKTISKAKGQPREPQVCTLPPSQEEMTKNQVSLSCAVKGFYPSDIAVEWESNGQPENNYKTTPPVLDSDGSFFLVSRLTVDKSRWQEGNVFSCSVMHEALHNHYTQKSLSLSLGK
light: DVVMTQSPLSLPVTLGQPASISCRSSQSLLDSDGGTYLYWFQQRPGQSPRRLIYLVSTLGSGVPDRFSGSGSGTDFTLKISRVEAEDVGVYYCMQLTHWPYTFGQGTKLEIKRTVAAPSVFIFPPSDEQLKSGTASVVCLLNNFYPREAKVQWKVDNALQSGNSQESVTEQDSKDSTYSLSSTLTLSKADYEKHKVYACEVTHQGLSSPVTKSFNRGEC
Potency reduction, pSTAT5, human primary CD8+ T [2]: 13.4 fold
pSTAT5 EC50, human primary CD8+ T [2]: 191 nM
Potency reduction, pSTAT5, human activated CD8+ T (CD25 positive and PD-1 positive) [3]: 2 fold
pSTAT5 EC50, human activated CD8+ T (CD25 positive and PD-1 positive) [3]: 0.055 nM
PD-1+/PD-1- ratio (pSTAT5 potency, activated versus primary CD8+ T) [4]: 3470 fold
PD-1+/PD-1- ratio (pSTAT5 potency, activated versus primary CD8+ T) [5]: 3470 fold

B3: W3XX115-T2U3.E44-26.uIgG4V322 (Fc fusion)
chain: APTSSSTKKTQLQLEHLLLDLQMILNGINNYKNPKLTRMLTFKFYMPKKATELKHLQCLEEELKPLEEVLNLAQSKNFHLRPRDLISNINVIVLELKGSETTFMCEYADETATIVEFLNRWITFCQSILESKYGPPCPPCPAPEAAGGPSVFLFPPKPKDTLMISRTPEVTCVVVDVSQEDPEVQFNWYVDGVEVHNAKTKPREEQFNSTYRVVSVLTVLHQDWLNGKEYKCKVSNKGLPSSIEKTISKAKGQPREPQVYTLPPCQEEMTKNQVSLWCLVKGFYPSDIAVEWESNGQPENNYKTTPPVLDSDGSFFLYSRLTVDKSRWQEGNVFSCSVMHEALHNHYTQKSLSLSLGK
heavy: QVQLVQSGAEVKKPGSSVKVSCKASGFTFTTYYISWVRQAPGQGLEYLGYINMGSGGTNYNEKFKGRVTITADKSTSTAYMELSSLRSEDTAVYYCAIIGYFDYWGQGTMVTVSSASTKGPSVFPLAPCSRSTSESTAALGCLVKDYFPEPVTVSWNSGALTSGVHTFPAVLQSSGLYSLSSVVTVPSSSLGTKTYTCNVDHKPSNTKVDKRVESKYGPPCPPCPAPEAAGGPSVFLFPPKPKDTLMISRTPEVTCVVVDVSQEDPEVQFNWYVDGVEVHNAKTKPREEQFNSTYRVVSVLTVLHQDWLNGKEYKCKVSNKGLPSSIEKTISKAKGQPREPQVCTLPPSQEEMTKNQVSLSCAVKGFYPSDIAVEWESNGQPENNYKTTPPVLDSDGSFFLVSRLTVDKSRWQEGNVFSCSVMHEALHNHYTQKSLSLSLGK
light: DVVMTQSPLSLPVTLGQPASISCRSSQSLLDSDGGTYLYWFQQRPGQSPRRLIYLVSTLGSGVPDRFSGSGSGTDFTLKISRVEAEDVGVYYCMQLTHWPYTFGQGTKLEIKRTVAAPSVFIFPPSDEQLKSGTASVVCLLNNFYPREAKVQWKVDNALQSGNSQESVTEQDSKDSTYSLSSTLTLSKADYEKHKVYACEVTHQGLSSPVTKSFNRGEC
Potency reduction, pSTAT5, human primary CD8+ T [2]: 25.9 fold
pSTAT5 EC50, human primary CD8+ T [2]: 370 nM
Potency reduction, pSTAT5, human activated CD8+ T (CD25 positive and PD-1 positive) [3]: 3.2 fold
pSTAT5 EC50, human activated CD8+ T (CD25 positive and PD-1 positive) [3]: 0.088 nM
PD-1+/PD-1- ratio (pSTAT5 potency, activated versus primary CD8+ T) [4]: 4200 fold
PD-1+/PD-1- ratio (pSTAT5 potency, activated versus primary CD8+ T) [5]: 4200 fold
